No end group written: not given here.
Biological target: T1, membrane hyaluronidase Hyal-2 on spleen cells of NOD-SCID mice (mouse (spleen cells of NOD-SCID mice), UniProt O35632 21-448)
T1 construct: whole, on cells; Endogenous protein on mouse spleen cells, detected with an antibody against Hyal-2; also called hyaluronidase-2
T1 sequence (looked up): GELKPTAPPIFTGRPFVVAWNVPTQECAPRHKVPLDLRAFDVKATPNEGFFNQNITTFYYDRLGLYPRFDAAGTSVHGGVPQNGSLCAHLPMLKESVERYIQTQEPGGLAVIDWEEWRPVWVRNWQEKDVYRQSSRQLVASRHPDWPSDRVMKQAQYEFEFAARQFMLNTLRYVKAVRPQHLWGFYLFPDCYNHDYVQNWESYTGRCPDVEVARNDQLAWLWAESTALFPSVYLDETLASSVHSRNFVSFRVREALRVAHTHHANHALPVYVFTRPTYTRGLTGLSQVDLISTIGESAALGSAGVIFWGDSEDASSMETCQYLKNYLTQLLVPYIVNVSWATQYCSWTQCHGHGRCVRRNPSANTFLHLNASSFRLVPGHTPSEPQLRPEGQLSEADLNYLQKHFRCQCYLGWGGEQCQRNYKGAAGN
Assay: epifluorescence and confocal microscopy of NOD-SCID spleen cells stained with TMR-Zfra1-31 and Hyal-2 antibody
Protocol: FIG. 2 includes photos showing the identification of Zfra⁺ Hyal-2⁺ spleen cells. A and B: Spleen cells of NOD-SCID mice were isolated and stained with synthesized peptide TMR-Zfra₁₋₃₁ and Hyal-2 (green fluorescence) antibody for 30 minutes on ice, and then fixed with 4% formaldehyde. Zfra bound to membrane hyaluronidase Hyal-2, as determined by epifluorescence and confocal microscopy.
In this example, spleen cells were isolated from immune deficient NOD-SCID mice, which are deficient in T and B lymphocytes and NK cells. The isolated spleen cells were stained with antibody against Hyal-2 (green) and TMR-Zfra (Zfra₁₋₃₁ labeled with red fluorescent tetramethylrodamine) for 30 minutes on ice, and then fixed with 4% formaldehyde (FIG. 2). […] These Hyal-2⁺ Zfra⁺ positive cells are interchangeably referred to as “Z cells,” for cells interacting with Zfra.

B1: TMR-Zfra1-31 (Zfra1-31 labeled with red fluorescent tetramethylrodamine) (peptide)
peptide: MSSRRSSSCKYCEQDFRAHTQKNAATPFLAN
modifications: cysteine pairing not given here; also: tetramethylrhodamine (TMR) label, position not given here
notes: Synthesized full-length Zfra peptide with a TMR label, used to stain spleen cells; also called Tetramethylrhodamine-Zfra
**Q.** Does B1 bind?
**A.** binds
